Consider one substance from publication PMC5629210.

This experiment has as its target SRGAP1 (UniProt Q7Z6B7). Description: GFP-trap of SRGAP1-GFP, blot for cortactin-mCherry. Conditions: reference: wild type cortactin-mCherry; sites Y421,Y470,Y486.

Regarding “cortactin (from UniProt Q14247) 3YF cortactin-mCherry”, the “binding against the reference” value is “stronger”.
